One assay deals with poly-L-arginine. Description: Val^8-GLP-1 in the supernatant versus total, after mixing with poly-L-arginine, 25 C, 24 h.
Assay [1] has as its target protamine (from protamine sulfate). Description: share of Val^8-GLP-1 in particles (supernatant versus total); 2.0 mg Val^8-GLP-1 + 0.44 mg protamine, ratio 4.5.
Assay [2] has the same target. Description: share of Val^8-GLP-1 in particles (supernatant versus total); 2.0 mg Val^8-GLP-1 + 0.33 mg protamine, ratio 6.1.
For assay [3] the target is unchanged. Description: share of Val^8-GLP-1 in particles (supernatant versus total); 2.0 mg Val^8-GLP-1 + 0.38 mg protamine, ratio 5.3.
The target is the same in assay [4]. Description: share of Val^8-GLP-1 in particles (supernatant versus total); 2.0 mg Val^8-GLP-1 + 0.16 mg protamine, ratio 12.5.
Assay [5] shares this target. Description: share of Val^8-GLP-1 in particles (supernatant versus total); 2.0 mg Val^8-GLP-1 + 0.22 mg protamine, ratio 9.1.
Assay [6] shares this target. Description: share of Val^8-GLP-1 in particles (supernatant versus total); 2.0 mg Val^8-GLP-1 + 0.27 mg protamine, ratio 7.4.
The target is the same in assay [7]. Description: share of Val^8-GLP-1 in particles (supernatant versus total); 2.0 mg Val^8-GLP-1 + 0.55 mg protamine, ratio 3.6.
For assay [8] the target is unchanged. Description: Val^8-GLP-1 in the supernatant versus total, after mixing with protamine, 25 C, 24 h.
Assay [9] has the same target. Description: share of Val^8-GLP-1 in particles (supernatant versus total); 2.0 mg Val^8-GLP-1 + 0.49 mg protamine, ratio 4.1.

HVEGTFTSDVSSYLEGQAAKEFIAWLVKGRG [Val^8-GLP-1(7-37)OH]: the yield (share of Val^8-GLP-1 in the particles) with poly-L-arginine is 90%; in [8] it was 90 to 95%. Moreover, the Yield % in assay [1] turned out to be 99.5%; in assay [2] it was 94.5%; in [3], 98.3%; in assay [4], 54.6%; in assay [5], 73.2%; in assay [6] it was 84.3%. Besides, the Yield % in [7] was 99.4%; in [9] it was 99.7%.

The values are drawn from patent US20050043228A1.
